Assay results as given in doi:10.1101/2025.11.27.690698 (bioRxiv, 2025).
Changes are numbered by the printed parent chain. In names and notes the source's numbering stands.

B1: human NLRP10 (aa 4-655) (natural protein)
chain: AKARKPREALLWALSDLEENDFKKLKFYLRDMTLSEGQPPLARGELEGLIPVDLAELLISKYGEKEAVKVVLKGLKVMNLLELVDQLSHICLHDYREVYREHVRCLEEWQEAGVNGRYNQVLLVAKPSSESPESLACPFPEQELESVTVEALFDSGEKPSLAPSLVVLQGSAGTGKTTLARKMVLDWATGTLYPGRFDYVFYVSCKEVVLLLESKLEQLLFWCCGDNQAPVTEILRQPERLLFILDGFDELQRPFEEKLKKRGLSPKESLLHLLIRRHTLPTCSLLITTRPLALRNLEPLLKQARHVHILGFSEEERARYFSSYFTDEKQADRAFDIVQKNDILYKACQVPGICWVVCSWLQGQMERGKVVLETPRNSTDIFMAYVSTFLPPDDDGGCSELSRHRVLRSLCSLAAEGIQHQRFLFEEAELRKHNLDGPRLAAFLSSNDYQLGLAIKKFYSFRHISFQDFFHAMSYLVKEDQSRLGKESRREVQRLLEVKEQEGNDEMTLTMQFLLDISKKDSFSNLELKFCFRISPCLAQDLKHFKEQMESMKHNRTWDLEFSLYEAKIKNLVKGIQMNNVSFKIKHSNEKKSQSQNLFSVKSSLSHGPKEEQKCPSVHGQKEGKDNIAGTQKEASTGKGRGTEETPKNTYI
B2: Walker A mutant human NLRP10 (aa 4-655 K179A) (natural protein)
chain: B1 chain with K176A

Biological target: the molecule itself
Assay: SEC

Protein	binding result
B1	binds
B2	binds
